The values below come from patent US20210205403A1 (RESEARCH FOUNDATION FOR THE STATE UNIVERSITY OF NEW YORK, published 2021).

The assay has as its target HDM-2 in the cancer cell membrane (human, UniProt Q00987 1-491). Description: cell-based or functional assay.

Sequence of HDM-2 in the cancer cell membrane (Q00987 whole entry): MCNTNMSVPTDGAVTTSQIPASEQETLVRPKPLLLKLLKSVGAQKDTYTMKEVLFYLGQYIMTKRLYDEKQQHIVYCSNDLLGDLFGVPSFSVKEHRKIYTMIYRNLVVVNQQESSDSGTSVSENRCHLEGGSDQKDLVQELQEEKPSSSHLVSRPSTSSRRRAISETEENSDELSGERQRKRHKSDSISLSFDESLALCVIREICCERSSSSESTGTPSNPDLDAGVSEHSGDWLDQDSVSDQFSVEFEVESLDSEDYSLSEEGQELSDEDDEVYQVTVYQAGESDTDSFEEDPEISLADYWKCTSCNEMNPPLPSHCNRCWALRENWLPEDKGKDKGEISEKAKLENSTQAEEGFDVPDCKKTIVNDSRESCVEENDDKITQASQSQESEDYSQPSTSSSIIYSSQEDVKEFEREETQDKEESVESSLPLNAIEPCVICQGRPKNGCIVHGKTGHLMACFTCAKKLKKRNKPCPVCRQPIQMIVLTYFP

B1: PNC-27 (p53 aa12-26-MRP) (peptide)
peptide: PPLSQETFSDLWKLLKKWKMRRNQFWVKVQRG
With B1, the “IC50 (dose of PNC-27 on cancer cells)” value stood at 125 µg/mL.
